Target: T1, WT-HBc capsids (hepatitis B core protein, genotype D; strain ayw; GenBank: V01460.1) (Hepatitis B virus (genotype D; strain ayw)), P03146
T1 chain: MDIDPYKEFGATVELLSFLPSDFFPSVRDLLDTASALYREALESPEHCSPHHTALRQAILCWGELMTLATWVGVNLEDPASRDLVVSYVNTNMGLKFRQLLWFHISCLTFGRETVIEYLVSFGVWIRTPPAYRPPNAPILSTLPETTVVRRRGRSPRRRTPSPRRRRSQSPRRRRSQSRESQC
Experiment: negative-staining electron microscopy
Conditions: remark: other sources report otherwise

B1: WT-HBc capsids (hepatitis B core protein, genotype D; strain ayw; GenBank: V01460.1), P03146 1-183 (natural protein)
chain: MDIDPYKEFGATVELLSFLPSDFFPSVRDLLDTASALYREALESPEHCSPHHTALRQAILCWGELMTLATWVGVNLEDPASRDLVVSYVNTNMGLKFRQLLWFHISCLTFGRETVIEYLVSFGVWIRTPPAYRPPNAPILSTLPETTVVRRRGRSPRRRTPSPRRRRSQSPRRRRSQSRESQC
Question: With B1 as the binder, how does the stoichiometry N (subunits per capsid) read?
Answer: Its stoichiometry N (subunits per capsid) is 240.
